From patent US8765433B2, “Alcohol dehydrogenases (ADH) useful for fermentive production of lower alkyl alcohols” (Butamax Advanced Biofuels LLC, priority 2009, dated 2014)

B1: EhADH1: Entamoeba histolytica ADH1, SEQ ID NO: 30 (protein, listed as Entamoeba histolytica)
chain: MKGLAMLGIGRIGWIEKKIPECGPLDALVRPLALAPCTSDTHTVWAGAIGDRHDMILGHEAVGQIVKVGSLVKRLKVGDKVIVPAITPDWGEEESQRGYPMHSGGMLGGWKFSNFKDGVFSEVFHVNEADANLALLPRDIKPEDAVMLSDMVTTGFHGAELANIKLGDTVCVIGIGPVGLMSVAGANHLGAGRIFAVGSRKHCCDIALEYGATDIINYKNGDIVEQILKATDGKGVDKVVIAGGDVHTFAQAVKMIKPGSDIGNVNYLGEGDNIDIPRSEWGVGMGHKHIHGGLTPGGRVRMEKLASLISTGKLDTSKLITHRFEGLEKVEDALMLMKNKPADLIKPVVRIHYDDEDTLH
B2: ScADH6: Saccharomyces cerevisiae ADH6 alcohol dehydrogenase, SEQ ID NO: 22 (protein, listed as Saccharomyces cerevisiae)
chain: MSYPEKFEGIAIQSHEDWKNPKKTKYDPKPFYDHDIDIKIEACGVCGSDIHCAAGHWGNMKMPLVVGHEIVGKVVKLGPKSNSGLKVGQRVGVGAQVFSCLECDRCKNDNEPYCTKFVTTYSQPYEDGYVSQGGYANYVRVHEHFVVPIPENIPSHLAAPLLCGGLTVYSPLVRNGCGPGKKVGIVGLGGIGSMGTLISKAMGAETYVISRSSRKREDAMKMGADHYIATLEEGDWGEKYFDTFDLIVVCASSLTDIDFNIMPKAMKVGGRIVSISIPEQHEMLSLKPYGLKAVSISYSALGSIKELNQLLKLVSEKDIKIWVETLPVGEAGVHEAFERMEKGDVRYRFTLVGYDKEFSD
B3: RpADH8: Rana perezi ADH8, SEQ ID NO: 28 (protein, listed as Rama perezi)
chain: MCTAGKDITCKAAVAWEPHKPLSLETITVAPPKAHEVRIKILASGICGSDSSVLKEIIPSKFPVILGHEAVGVVESIGAGVTCVKPGDKVIPLFVPQCGSCRACKSSNSNFCEKNDMGAKTGLMADMTSRFTCRGKPIYNLVGTSTFTEYTVVADIAVAKIDPKAPLESCLIGCGFATGYGAAVNTAKVTPGSTCAVFGLGGVGFSAIVGCKAAGASRIIGVGTHKDKFPKAIELGATECLNPKDYDKPIYEVICEKTNGGVDYAVECAGRIETMMNALQSTYCGSGVTVVLGLASPNERLPLDPLLLLTGRSLKGSVFGGFKGEEVSRLVDDYMKKKINVNFLVSTKLTLDQINKAFELLSSGQGVRSIMIY
B4: AbADH: Acinetobacter baumannii AYE ADH, SEQ ID NO: 36 (protein)
chain: MENIMKAMVYYGDHDIRFEERKKPELIDPTDAIIKMTKTTICGTDLGIYKGKNPEIEQKEQEKNGSFNGRILGHEGIGIVEQIGSSVKNIKVGDKVIVSCVSRCGTCENCAKQLYSHCRNDGGWIMGYMIDGTQAEYVRTPFADTSLYVLPEGLNEDVAVLLSDALPTAHEIGVQNGDIKPGDTVAIVGAGPVGMSALLTAQFYSPSQIIMIDMDENRLAMAKELGATDTINSGTEDAIARVMELTNQRGVDCAIEAVGIEPTWDICQNIVKEGGHLANVGVHGKSVNFSLEKLWIKNLTITTGLVNANTTGMLLKSCCSGKLPMEKLATHHFKFNEIEKAYDVFINAAKEKAMKVIIDF
modifications: Acinetobacter baumannii AYE
B5: VpADH: Vanderwaltozyma polyspora DSM 70294 ADH, SEQ ID NO: 38 (protein)
chain: MSYPEKFQGIGITNREDWKHPKKVTFEPKQFNDKDVDIKIEACGVCGSDVHCAASHWGPVAEKQVVGHEIIGRVLKVGPKCTTGIKVGDRVGVGAQAWSCLECSRCKSDNESYCPKSVWTYSIPYIDGYVSQGGYASHIRLHEHFAIPIPDKLSNELAAPLLCGGITVYSPLLRNGCGPGKKVGIVGIGGIGHMGLLFAKGMGAEVYAFSRTHSKEADAKKLGADHFIATLEDKDWTTKYFDTLDLLVICASSLTDINFDELTKIMKVNTKIISISAPAADEVLTLKPFGLIGVTIGNSAIGSRREIEHLLNFVAEKDIKPWVETLPVGEAGVNEAFERMDKGDVKYRFTLVDFDKEFGN
modifications: Vanderwaltozyma polyspora DSM 70294
B6: GbADH: Geobacillus sp. WCH70 ADH, SEQ ID NO: 37 (protein)
chain: MKALTYLGPGKKEVMEKPKPKIEKETDAIVKITKTTICGTDLHILSGDVPTVEEGRILGHEGVGIIEEVGSGVKNFKKGDRVLISCITSCGKCENCKKGLYAHCEDGGWILGHLIDGTQAEYVRIPHADNSLYPIPEGVDEEALVMLSDILPTGFEIGVLNGKVQPGQTVAIIGAGPVGMAALLTAQFYSPAEIIMVDLDDNRLEVAKKFGATQVVNSADGKAVEKIMELTGGKGVDVAMEAVGIPVTFDICQEIVKPGGYIANIGVHGKSVEFHIEKLWIRNITLTTGLVNTTSTPMLLKTVQSKKLKPEQLITHRFAFADIMKAYEVFGNAAKEKALKVIISND
modifications: Geobacillus sp. WCH70
B7: BiADH: ADH of Beijerinckia indica subsp. Indica ATCC 9039, SEQ ID NO: 31 (protein, listed as Beijerickia indica)
chain: MKALVYRGPGQKLVEERQKPELKEPGDAIVKVTKTTICGTDLHILKGDVATCKPGRVLGHEGVGVIESVGSGVTAFQPGDRVLISCISSCGKCSFCRRGMFSHCTTGGWILGNEIDGTQAEYVRVPHADTSLYRIPAGADEEALVMLSDILPTGFECGVLNGKVAPGSSVAIVGAGPVGLAALLTAQFYSPAEIIMIDLDDNRLGLAKQFGATRTVNSTGGNAAAEVKALTEGLGVDTAIEAVGIPATFELCQNIVAPGGTIANVGVHGSKVDLHLESLWSHNVTITTRLVDTATTPMLLKTVQSHKLDPSRLITHRFSLDQILDAYETFGQAASTQALKVIISMEA
B8: BtARD: Bos Taurus Aldehyde Reductase, SEQ ID NO: 27 (protein, listed as Bos taurus)
chain: MAASCILLHTGQKMPLIGLGTWKSDPGQVKAAIKYALSVGYRHIDCAAIYGNETEIGEALKENVGPGKLVPREELFVTSKLWNTKHHPEDVEPALRKTLADLQLEYLDLYLMHWPYAFERGDSPFPKNADGTIRYDSTHYKETWRALEALVAKGLVRALGLSNFNSRQIDDVLSVASVRPAVLQVECHPYLAQNELIAHCQARNLEVTAYSPLGSSDRAWRDPEEPVLLKEPVVLALAEKHGRSPAQILLRWQVQRKVSCIPKSVTPSRILENIQVFDFTFSPEEMKQLDALNKNLRFIVPMLTVDGKRVPRDAGHPLYPFNDPY
B9: McADH: Mucor circinelloides ADH, SEQ ID NO: 39 (protein)
chain: MSEETFTAWACKSKSAPLEPMEMTFCHWDDDMVQMDVICCGVCGTDLHTVDEGWGPTEFPCVVGHEIIGNVTKVGKNVTRIKVGDRCGVGCQSASCGKCDFCKKGMENLCSTHAVWTFNDRYDNATKDKTYGGFAKKWRGNQDFVVHVPMDFSPEVAASFLCGGVTTYAPLKRYGVGKGSKVAVLGLGGLGHFGVQWAKAMGAEVVAFDVIPDKVDDAKKLGCDDYVLMQKEEQMEPHYNTFTHILATKIVNKCWDQYFKMLKNNGIFMLCDIPEVPLSGMSAFVMAGKQLTIAGTFIGSPSVIQECLDFAAKHNVRTWVNTFPMEKINEAFEFVRQAKPRYRAVVMN
modifications: Mucor circinelloides

How the values were obtained:
Assay type in all cases: biochemical
[1] = ADH activity assays of cell extracts and purified proteins; conditions: cell extracts or purified protein, initial experiments
Description: (§1) As a routine practice, the crude extracts and purified proteins were assayed for butanol oxidation activity, in order to ensure that the recombinant proteins were active throughout the purification process. […] Alcohol oxidation activities were carried out in 50 mM sodium phosphate buffer at pH 8.8 and aldehyde reduction reactions were assayed in 190 mM potassium phosphate buffer at pH 7.0. Depending on the nature of reaction being carried out, the enzyme and cofactor stocks were diluted in the reaction buffers at the respective pHs. Either buffer or cell extract prepared from the proprietary E. coli strain (with no ADH plasmid) was used as the negative control for assays with purified protein and cell-free extracts, respectively.
(§2) In initial experiments, there were insufficient levels of protein expression with EhADH1 and RpADH8. […] It is believed that one of skill in the art could further optimize expression and assay conditions for these candidates. Sufficient amounts of active protein could be purified with all other enzymes for which data are presented. […]

[2] = Cofactor specificity in isobutyraldehyde reduction reactions; conditions: for COFACTOR PREFERENCE: isobutyraldehyde reduction, NADH or NADPH as cofactor
Description: as §1, §2

[3] = Semi-physiological time-course assay with and without 321 mM isobutanol
Source text: The ideal way to characterize and compare various ADH candidates would be to calculate and compare the full set of kinetic constants, i.e., kcat values for aldehyde reduction and alcohol oxidation, KM values for isobutyraldehyde, isobutanol, NAD(P) and NAD(P)H, and KI values for isobutyraldehyde and isobutanol. A detailed characterization for numerous candidates would require considerable expenditure of time, effort and money. Thus, a qualitative assay was developed to allow for quick and efficient comparison of several candidates. A semi-physiological assay was designed to compare the performance of various enzymes. The assays entail the initiation of all reactions with a constant amount of each enzyme. […] Each reaction's time course was followed for 10 min by measuring the decrease in absorbance at 340 nm, as the reaction proceeds towards equilibrium. An enzyme with a high kcat, would drive the reaction towards equilibrium faster than an enzyme with a lower kcat. A parallel assay was also carried out under identical conditions, but with the inclusion of 321 mM isobutanol (24 g/L) in the reaction. An enzyme that is relatively uninhibited by this concentration of isobutanol would have a time course that closely mimics the time course in the absence of isobutanol.

[4] = Isobutanol oxidation assay; conditions: Table 8
Description: as §1
Kinetic constants of the ADH enzymes were calculated and compared to identify those candidate ADH enzymes with the most desirable properties for the conversion of isobutyraldehyde to isobutanol in the last step of the engineered pathway for isobutanol production. The assays for determining the kinetic constants were carried out using initial rates from the assays described above. […] The concentration of a given enzyme was such that it was conducive for the measurement of initial velocities over a 1-min time course. For each enzyme, Michaelis-Menten plots were generated with a broad range of substrate concentrations. Rough estimates of KM were obtained, based on which the assays were redesigned so as to use substrate concentrations in the range 0.5 to 10 times the KM value, to be able to obtain the appropriate kinetic constants. […] When calculating the KI for isobutanol, the same reactions were carried out in the presence of varying concentrations of isobutanol (generally 0-535 mM) in the reaction (see FIG. 7, for example). Reactions with isobutanol substrate were performed at 30° C. in 50 mM Sodium phosphate buffer, pH 8.8, containing 7.5 mM NAD. The Enzyme kinetics module (Version 1.3) of SigmaPlot 11 (Systat Software, Inc.) was used to fit data to Michaelis-Menten equations and calculate the kinetic constants. The kcat/KM is derived from the individual numbers of kcat and KM and not an experimentally determined value. The ratios of the KM, KI, and kcat/KM for each candidate enzyme as compared to the same parameter for SadB are given in Table 9.

| Molecule | ADH activity [1] | COFACTOR PREFERENCE [2] | Other enzymatic properties and cofactor preference ([2]; Table 8) | conversion of isobutanol to isobutyraldehyde [4] | also measured |
| --- | --- | --- | --- | --- | --- |
| B1 | failed to detect ADH activity | – | – | – | – |
| B2 | – | NADPH | – | – | Other enzymatic properties and cofactor preference ([2]; Table 7): NADPH specific; inhibition by isobutanol (inferred from time courses, FIG. 1) ([3]; 321 mM isobutanol (24 g/L)): likely to be the least inhibited |
| B3 | failed to detect ADH activity | – | – | – | – |
| B4 | – | NADH | NADH specific | No measureable | – |
| B5 | no detectable activity | – | – | – | – |
| B6 | – | NADPH | NADPH specific | No measureable | – |
| B7 | – | NADH | – | – | kcat for the isobutyraldehyde reduction reaction (inferred from time courses, FIG. 1) ([3]; 1 ug enzyme, 1 mM isobutyraldehyde, 200 μM NADH, 10 min): likely to have the highest kcat |
| B8 | no detectable activity | – | – | – | – |
| B9 | – | NADH | NADH specific | No measureable | – |
